The target in the experiment is T1, mac251 gp120 (Immune Technology Corp.) (SIV mac251, UniProt P08810 20-527).
T1 construct: Coated on ELISA plates at 2 ug/mL; also called SIV mac251 gp120
T1 sequence: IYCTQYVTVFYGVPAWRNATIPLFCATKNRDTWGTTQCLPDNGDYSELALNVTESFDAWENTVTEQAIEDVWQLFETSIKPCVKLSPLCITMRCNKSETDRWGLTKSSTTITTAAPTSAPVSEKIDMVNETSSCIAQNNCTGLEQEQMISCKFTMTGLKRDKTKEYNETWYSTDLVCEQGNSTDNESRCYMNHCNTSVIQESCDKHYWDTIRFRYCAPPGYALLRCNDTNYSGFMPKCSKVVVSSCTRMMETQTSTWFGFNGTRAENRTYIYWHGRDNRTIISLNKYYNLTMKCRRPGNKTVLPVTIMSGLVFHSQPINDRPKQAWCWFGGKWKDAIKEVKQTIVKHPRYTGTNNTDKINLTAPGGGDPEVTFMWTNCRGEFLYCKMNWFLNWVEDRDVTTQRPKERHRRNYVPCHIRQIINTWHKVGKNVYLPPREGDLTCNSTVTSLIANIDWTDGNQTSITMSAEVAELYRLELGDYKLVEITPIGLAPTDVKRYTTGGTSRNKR
Description: ELISA, mac251 gp120 coated at 2 ug/mL, immunoadhesin at 50 ng/mL, detected with anti-human IgG-biotin and streptavidin-HRP.

The text below walks through data of US20240277871A1 (University of Pennsylvania, published 2024).

B1: rhesus macaque anti-SIV mac251 gp120 IgG-201 immunoadhesin (201IA) (Fc fusion)
chain: EVQLLESGPGLVKPSETLSLTCAVSGLSISSDFSWAWIRQTPGKALEYVGYIRGNTGDTYYNPSLKSRLTISKDTSKNQIYLNLSSVTAGDAAVYYCARDRVCDDDYGYYYTEVCFGLDSWGQGIVVTVSSGGGGSGGGGSGGGGSAELVMTQSPLSLSVAPGQTASISCRSSQSLDYANGNTYLSWFHQRPGQPPRRLIYQISNRDSGVPDRFSGSGAGTEFTLRISRMESDDVGIYYCGQGTTFPRTFGQGTKVEIKTCGGGSKPPTCPPCTSPELLGGPSVFLFPPKPKDTLMISRTPEVTCVVVDVSQEDPDVKFNWYVNGAEVHHAQTKPRETQYNSTYRVVSVLTVTHQDWLNGKEYTCKVSNKALPAPIQKTISKDKGQPREPQVYTLPPSREELTKNQVSLTCLVKGFYPSDIVVEWESSGQPENTYKTTPPVLDSDGSYFLYSKLTVDKSRWQQGNVFSCSVMHEALHNHYTQKSLSLSPGK
notes: also called 201 anti-SIV immunoadhesin; 201IA standard protein produced in-house
On to B1, for which the binding result was “binds”.

B2: 201IA(I253A) (Fc fusion)
chain: EVQLLESGPGLVKPSETLSLTCAVSGLSISSDFSWAWIRQTPGKALEYVGYIRGNTGDTYYNPSLKSRLTISKDTSKNQIYLNLSSVTAGDAAVYYCARDRVCDDDYGYYYTEVCFGLDSWGQGIVVTVSSGGGGSGGGGSGGGGSAELVMTQSPLSLSVAPGQTASISCRSSQSLDYANGNTYLSWFHQRPGQPPRRLIYQISNRDSGVPDRFSGSGAGTEFTLRISRMESDDVGIYYCGQGTTFPRTFGQGTKVEIKTCGGGSKPPTCPPCTSPELLGGPSVFLFPPKPKDTLMASRTPEVTCVVVDVSQEDPDVKFNWYVNGAEVHHAQTKPRETQYNSTYRVVSVLTVTHQDWLNGKEYTCKVSNKALPAPIQKTISKDKGQPREPQVYTLPPSREELTKNQVSLTCLVKGFYPSDIVVEWESSGQPENTYKTTPPVLDSDGSYFLYSKLTVDKSRWQQGNVFSCSVMHEALHNHYTQKSLSLSPGK
notes: No leader limits are stated; Expressed in HEK293 cells and purified on Protein A; also called I253A 201IA mutant
As to B2, the binding result was “binds”.
